The values below come from publication PMC6474821.

Common to all, as to experiment: fluorescence anisotropy
The target of data set [1] is htCREBD,4 (unphosphorylated) (UniProt P15337-1 1-341, C90A;V118D;C300S;C310S;C337S;del162-272).
The target in data set [2] is T1, CREB bZip (Rattus norvegicus, UniProt P15337-1 270-341, C300S;C310S;C337S).
T1 sequence: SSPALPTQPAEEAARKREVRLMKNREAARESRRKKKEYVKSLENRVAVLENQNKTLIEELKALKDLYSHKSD

For data set [3], the target named is T1, CREB bZip. This is another data set of the same source.

Where two headings read alike, the source gives them in different places.

B1: half-site CRE 14-mer (dsDNA)
DNA 1: ATCTGCGTCAGAGT
DNA 2: ACTCTGACGCAGAT
With B1, the binding result in data set [1] is “binds”. Moreover, the Kd with CREB bZip [2] was approximately 38 nM; in the data set with CREB bZip [3], approximately 32 nM.
